Measured values published in patent US20230357348A1 (AstraZeneca / MedImmune, published 2023).
Starred links: 1 amine or outer side, 2 acyl side, 3 side chain; linkers in the order of their positions; H or OH if unused. Non-standard residues stand in square brackets, D forms with d. Groups on a side chain read outwards from the residue. No end group written: not given here. *: point of attachment. C20 diacid = O=C(O)CCCCCCCCCCCCCCCCCCC(=O)*; C18 diacid = O=C(O)CCCCCCCCCCCCCCCCC(=O)*; γGlu = O=C(O)[C@H](CCC(=O)[*:2])N[*:1]; αMeF = C[C@](N)(Cc1ccccc1)C(=O)O; AEEA = NCCOCCOCC(=O)O; Aib = CC(C)(N)C(=O)O

Assays:
[1] = target: human GLP-1 receptor (hGLP-1R) (human, UniProt P43220 24-463); experiment: cell-based or functional assay
[2] = target: human glucagon receptor (hGCGR) (human, UniProt P47871 26-477); experiment: cell-based or functional assay
Chain of human glucagon receptor (hGCGR) (P47871 26-477): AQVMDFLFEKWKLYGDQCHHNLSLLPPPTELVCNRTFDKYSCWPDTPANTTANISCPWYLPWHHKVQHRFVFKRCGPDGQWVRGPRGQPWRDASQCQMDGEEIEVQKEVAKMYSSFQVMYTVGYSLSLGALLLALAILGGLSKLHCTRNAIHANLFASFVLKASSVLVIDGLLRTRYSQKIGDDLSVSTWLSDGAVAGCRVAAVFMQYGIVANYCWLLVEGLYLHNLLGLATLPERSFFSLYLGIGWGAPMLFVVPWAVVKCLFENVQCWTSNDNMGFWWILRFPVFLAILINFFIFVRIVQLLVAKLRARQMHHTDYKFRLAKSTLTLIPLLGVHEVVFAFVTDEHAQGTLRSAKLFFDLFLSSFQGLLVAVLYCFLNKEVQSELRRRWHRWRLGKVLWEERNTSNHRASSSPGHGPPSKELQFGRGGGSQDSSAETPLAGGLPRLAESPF

| hGLP-1R EC50 (pM) [1] | hGluc-R EC50 (pM) [2] | Binder |
| --- | --- | --- |
| 11.9 pM | 20.4 pM | H[Aib]QGTFTSDVSK[αMeF]LDSK([AEEA-AEEA-γGlu-C18 diacid])RAQDFVRWLL[Aib]E-OH (N-terminus assumed; SMILES CC(C)C[C@H](NC(=O)[C@H](Cc1c[nH]c2ccccc12)NC(=O)[C@H](CCCNC(=N)N)NC(=O)[C@@H](NC(=O)[C@H](Cc1ccccc1)NC(=O)[C@H](CC(=O)O)NC(=O)[C@H](CCC(N)=O)NC(=O)[C@H](C)NC(=O)[C@H](CCCNC(=N)N)NC(=O)[C@H](CCCCNC(=O)COCCOCCNC(=O)COCCOCCNC(=O)CC[C@H](NC(=O)CCCCCCCCCCCCCCCCC(=O)O)C(=O)O)NC(=O)[C@H](CO)NC(=O)[C@H](CC(=O)O)NC(=O)[C@H](CC(C)C)NC(=O)[C@](C)(Cc1ccccc1)NC(=O)[C@H](CCCCN)NC(=O)[C@H](CO)NC(=O)[C@@H](NC(=O)[C@H](CC(=O)O)NC(=O)[C@H](CO)NC(=O)[C@@H](NC(=O)[C@H](Cc1ccccc1)NC(=O)[C@@H](NC(=O)CNC(=O)[C@H](CCC(N)=O)NC(=O)C(C)(C)NC(=O)[C@@H](N)Cc1c[nH]cn1)[C@@H](C)O)[C@@H](C)O)C(C)C)C(C)C)C(=O)N[C@@H](CC(C)C)C(=O)NC(C)(C)C(=O)N[C@@H](CCC(=O)O)C(=O)O) [Peptide 152] |
| 111 pM | 178 pM | H[Aib]QGTFTSDVSK[αMeF]LDSK([AEEA-AEEA-γGlu-C20 diacid])RAQDFVRWLL[Aib]TE-OH (N-terminus assumed; SMILES CC(C)C[C@H](NC(=O)[C@H](Cc1c[nH]c2ccccc12)NC(=O)[C@H](CCCNC(=N)N)NC(=O)[C@@H](NC(=O)[C@H](Cc1ccccc1)NC(=O)[C@H](CC(=O)O)NC(=O)[C@H](CCC(N)=O)NC(=O)[C@H](C)NC(=O)[C@H](CCCNC(=N)N)NC(=O)[C@H](CCCCNC(=O)COCCOCCNC(=O)COCCOCCNC(=O)CC[C@H](NC(=O)CCCCCCCCCCCCCCCCCCC(=O)O)C(=O)O)NC(=O)[C@H](CO)NC(=O)[C@H](CC(=O)O)NC(=O)[C@H](CC(C)C)NC(=O)[C@](C)(Cc1ccccc1)NC(=O)[C@H](CCCCN)NC(=O)[C@H](CO)NC(=O)[C@@H](NC(=O)[C@H](CC(=O)O)NC(=O)[C@H](CO)NC(=O)[C@@H](NC(=O)[C@H](Cc1ccccc1)NC(=O)[C@@H](NC(=O)CNC(=O)[C@H](CCC(N)=O)NC(=O)C(C)(C)NC(=O)[C@@H](N)Cc1c[nH]cn1)[C@@H](C)O)[C@@H](C)O)C(C)C)C(C)C)C(=O)N[C@@H](CC(C)C)C(=O)NC(C)(C)C(=O)N[C@H](C(=O)N[C@@H](CCC(=O)O)C(=O)O)[C@@H](C)O) [Peptide 151] |
| 48 pM | 270 pM | H[Aib]QGTFTSDVSK[αMeF]LDSK([AEEA-AEEA-γGlu-C18 diacid])RARDFVRWLL[Aib]TE-OH (N-terminus assumed; SMILES CC(C)C[C@H](NC(=O)[C@H](Cc1c[nH]c2ccccc12)NC(=O)[C@H](CCCNC(=N)N)NC(=O)[C@@H](NC(=O)[C@H](Cc1ccccc1)NC(=O)[C@H](CC(=O)O)NC(=O)[C@H](CCCNC(=N)N)NC(=O)[C@H](C)NC(=O)[C@H](CCCNC(=N)N)NC(=O)[C@H](CCCCNC(=O)COCCOCCNC(=O)COCCOCCNC(=O)CC[C@H](NC(=O)CCCCCCCCCCCCCCCCC(=O)O)C(=O)O)NC(=O)[C@H](CO)NC(=O)[C@H](CC(=O)O)NC(=O)[C@H](CC(C)C)NC(=O)[C@](C)(Cc1ccccc1)NC(=O)[C@H](CCCCN)NC(=O)[C@H](CO)NC(=O)[C@@H](NC(=O)[C@H](CC(=O)O)NC(=O)[C@H](CO)NC(=O)[C@@H](NC(=O)[C@H](Cc1ccccc1)NC(=O)[C@@H](NC(=O)CNC(=O)[C@H](CCC(N)=O)NC(=O)C(C)(C)NC(=O)[C@@H](N)Cc1c[nH]cn1)[C@@H](C)O)[C@@H](C)O)C(C)C)C(C)C)C(=O)N[C@@H](CC(C)C)C(=O)NC(C)(C)C(=O)N[C@H](C(=O)N[C@@H](CCC(=O)O)C(=O)O)[C@@H](C)O) [Peptide 166] |
| 41.2 pM | 99 pM | H[Aib]QGTFTSDVSK[αMeF]LDSK([AEEA-AEEA-γGlu-C20 diacid])RAQDFVRWLL[Aib]E-OH (N-terminus assumed; SMILES CC(C)C[C@H](NC(=O)[C@H](Cc1c[nH]c2ccccc12)NC(=O)[C@H](CCCNC(=N)N)NC(=O)[C@@H](NC(=O)[C@H](Cc1ccccc1)NC(=O)[C@H](CC(=O)O)NC(=O)[C@H](CCC(N)=O)NC(=O)[C@H](C)NC(=O)[C@H](CCCNC(=N)N)NC(=O)[C@H](CCCCNC(=O)COCCOCCNC(=O)COCCOCCNC(=O)CC[C@H](NC(=O)CCCCCCCCCCCCCCCCCCC(=O)O)C(=O)O)NC(=O)[C@H](CO)NC(=O)[C@H](CC(=O)O)NC(=O)[C@H](CC(C)C)NC(=O)[C@](C)(Cc1ccccc1)NC(=O)[C@H](CCCCN)NC(=O)[C@H](CO)NC(=O)[C@@H](NC(=O)[C@H](CC(=O)O)NC(=O)[C@H](CO)NC(=O)[C@@H](NC(=O)[C@H](Cc1ccccc1)NC(=O)[C@@H](NC(=O)CNC(=O)[C@H](CCC(N)=O)NC(=O)C(C)(C)NC(=O)[C@@H](N)Cc1c[nH]cn1)[C@@H](C)O)[C@@H](C)O)C(C)C)C(C)C)C(=O)N[C@@H](CC(C)C)C(=O)NC(C)(C)C(=O)N[C@@H](CCC(=O)O)C(=O)O) [Peptide 153] |
| 166 pM | 355 pM | H[Aib]QGTFTSDVSK[αMeF]LDSK([AEEA-AEEA-γGlu-C18 diacid])RAQDFVQWLL[Aib]TE-OH (N-terminus assumed; SMILES CC(C)C[C@H](NC(=O)[C@H](Cc1c[nH]c2ccccc12)NC(=O)[C@H](CCC(N)=O)NC(=O)[C@@H](NC(=O)[C@H](Cc1ccccc1)NC(=O)[C@H](CC(=O)O)NC(=O)[C@H](CCC(N)=O)NC(=O)[C@H](C)NC(=O)[C@H](CCCNC(=N)N)NC(=O)[C@H](CCCCNC(=O)COCCOCCNC(=O)COCCOCCNC(=O)CC[C@H](NC(=O)CCCCCCCCCCCCCCCCC(=O)O)C(=O)O)NC(=O)[C@H](CO)NC(=O)[C@H](CC(=O)O)NC(=O)[C@H](CC(C)C)NC(=O)[C@](C)(Cc1ccccc1)NC(=O)[C@H](CCCCN)NC(=O)[C@H](CO)NC(=O)[C@@H](NC(=O)[C@H](CC(=O)O)NC(=O)[C@H](CO)NC(=O)[C@@H](NC(=O)[C@H](Cc1ccccc1)NC(=O)[C@@H](NC(=O)CNC(=O)[C@H](CCC(N)=O)NC(=O)C(C)(C)NC(=O)[C@@H](N)Cc1c[nH]cn1)[C@@H](C)O)[C@@H](C)O)C(C)C)C(C)C)C(=O)N[C@@H](CC(C)C)C(=O)NC(C)(C)C(=O)N[C@H](C(=O)N[C@@H](CCC(=O)O)C(=O)O)[C@@H](C)O) [Peptide 150] |

Continued, binder first:

| Binder | hGLP-1R EC50 (pM) [1] | hGluc-R EC50 (pM) [2] |
| --- | --- | --- |
| H[Aib]QGS[αMeF]TSDVSK[αMeF]LDSK([AEEA-AEEA-γGlu-γGlu-C18 diacid])AAQD[αMeF]VQ[Aib]IAN-NH2 (N-terminus assumed; SMILES CC[C@H](C)[C@H](NC(=O)C(C)(C)NC(=O)[C@H](CCC(N)=O)NC(=O)[C@@H](NC(=O)[C@](C)(Cc1ccccc1)NC(=O)[C@H](CC(=O)O)NC(=O)[C@H](CCC(N)=O)NC(=O)[C@H](C)NC(=O)[C@H](C)NC(=O)[C@H](CCCCNC(=O)COCCOCCNC(=O)COCCOCCNC(=O)CC[C@H](NC(=O)CC[C@H](NC(=O)CCCCCCCCCCCCCCCCC(=O)O)C(=O)O)C(=O)O)NC(=O)[C@H](CO)NC(=O)[C@H](CC(=O)O)NC(=O)[C@H](CC(C)C)NC(=O)[C@](C)(Cc1ccccc1)NC(=O)[C@H](CCCCN)NC(=O)[C@H](CO)NC(=O)[C@@H](NC(=O)[C@H](CC(=O)O)NC(=O)[C@H](CO)NC(=O)[C@@H](NC(=O)[C@](C)(Cc1ccccc1)NC(=O)[C@H](CO)NC(=O)CNC(=O)[C@H](CCC(N)=O)NC(=O)C(C)(C)NC(=O)[C@@H](N)Cc1c[nH]cn1)[C@@H](C)O)C(C)C)C(C)C)C(=O)N[C@@H](C)C(=O)N[C@@H](CC(N)=O)C(N)=O) [Peptide 5] | 283 pM | 7140 pM |
| H[Aib]HGS[αMeF]TSDVSK[αMeF]LDSK([AEEA-AEEA-γGlu-C18 diacid])AAQD[αMeF]VEWIAN-NH2 (N-terminus assumed; SMILES CC[C@H](C)[C@H](NC(=O)[C@H](Cc1c[nH]c2ccccc12)NC(=O)[C@H](CCC(=O)O)NC(=O)[C@@H](NC(=O)[C@](C)(Cc1ccccc1)NC(=O)[C@H](CC(=O)O)NC(=O)[C@H](CCC(N)=O)NC(=O)[C@H](C)NC(=O)[C@H](C)NC(=O)[C@H](CCCCNC(=O)COCCOCCNC(=O)COCCOCCNC(=O)CC[C@H](NC(=O)CCCCCCCCCCCCCCCCC(=O)O)C(=O)O)NC(=O)[C@H](CO)NC(=O)[C@H](CC(=O)O)NC(=O)[C@H](CC(C)C)NC(=O)[C@](C)(Cc1ccccc1)NC(=O)[C@H](CCCCN)NC(=O)[C@H](CO)NC(=O)[C@@H](NC(=O)[C@H](CC(=O)O)NC(=O)[C@H](CO)NC(=O)[C@@H](NC(=O)[C@](C)(Cc1ccccc1)NC(=O)[C@H](CO)NC(=O)CNC(=O)[C@H](Cc1c[nH]cn1)NC(=O)C(C)(C)NC(=O)[C@@H](N)Cc1c[nH]cn1)[C@@H](C)O)C(C)C)C(C)C)C(=O)N[C@@H](C)C(=O)N[C@@H](CC(N)=O)C(N)=O) [Peptide 6] | 568 pM | 516 pM |
| HSQGS[αMeF]TSDVSK[αMeF]LDSK([AEEA-AEEA-γGlu-C18 diacid])AAQDFVQWIANT-NH2 (N-terminus assumed; SMILES CC[C@H](C)[C@H](NC(=O)[C@H](Cc1c[nH]c2ccccc12)NC(=O)[C@H](CCC(N)=O)NC(=O)[C@@H](NC(=O)[C@H](Cc1ccccc1)NC(=O)[C@H](CC(=O)O)NC(=O)[C@H](CCC(N)=O)NC(=O)[C@H](C)NC(=O)[C@H](C)NC(=O)[C@H](CCCCNC(=O)COCCOCCNC(=O)COCCOCCNC(=O)CC[C@H](NC(=O)CCCCCCCCCCCCCCCCC(=O)O)C(=O)O)NC(=O)[C@H](CO)NC(=O)[C@H](CC(=O)O)NC(=O)[C@H](CC(C)C)NC(=O)[C@](C)(Cc1ccccc1)NC(=O)[C@H](CCCCN)NC(=O)[C@H](CO)NC(=O)[C@@H](NC(=O)[C@H](CC(=O)O)NC(=O)[C@H](CO)NC(=O)[C@@H](NC(=O)[C@](C)(Cc1ccccc1)NC(=O)[C@H](CO)NC(=O)CNC(=O)[C@H](CCC(N)=O)NC(=O)[C@H](CO)NC(=O)[C@@H](N)Cc1c[nH]cn1)[C@@H](C)O)C(C)C)C(C)C)C(=O)N[C@@H](C)C(=O)N[C@@H](CC(N)=O)C(=O)N[C@H](C(N)=O)[C@@H](C)O) [Peptide 4] | 240 pM | 1170 pM |
